Experimental data as given in paper PMC5977221.
Where “and” joins values, the source holds several entries; their conditions need not be identical. Equal values may be shown once.

Columns and labels:
[1] = tested on: BAA2326 repressor (Shiga toxin-encoding bacteriophage BAA2326 (from STEC)); test: EMSA; settings: for binding signal: scale: fold Kd relative to separate OR1
[2] = tested on: BAA2326 repressor (Shiga toxin-encoding bacteriophage BAA2326 (from STEC)); test: DNaseI footprinting

## GCGAATTCACTAAAGCACTTGCAATATGTAATGAAATATCTGCGGTGTTGACATTCCATAATAACTAAGAAGCTTCC (double strand) [BAA2326 OR2 oligonucleotide]
[1]
  binding signal: 83.3

## intact BAA2326 OR, wild type
[2]
  Kd: 28.6 nM and 44 nM and 59.1 nM

## GCGAATTCACTAAAGCACTTGCAATATCACCTTTGGTTATATGTAATGCCATAATAACTAAGAAGCTTCC (double strand) [BAA2326 OR3 oligonucleotide]
[1]
  binding signal: 2.5

## GCGAATTCACTAAAGCACTTGCATTTAATAACTGTGCGTAATGATATGCCATAATAACTAAGAAGCTTCC (double strand) [BAA2326 OR1 oligonucleotide]
[1]
  Kd: 0.42 nM
